According to PMC9482650, “Quantitative fragmentomics allow affinity mapping of interactomes” (Nature Communications, 2022):
One block for each binder: values may come before it.

Legend:
Test in all cases: holdup assay
Parameters in all cases: key: below the threshold = too weak to quantify, mostly under pKd 3.1 to 4
[1] = biological target: T1, APBA3_1, O96018
T1 sequence (O96018 389-490, limits assumed, looked up): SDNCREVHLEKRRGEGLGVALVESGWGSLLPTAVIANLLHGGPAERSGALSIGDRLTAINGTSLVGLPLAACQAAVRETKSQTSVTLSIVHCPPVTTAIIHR

[2] = biological target: T2, DFNB31_3, Q9P202
T2 sequence (Q9P202 811-907, limits assumed, looked up): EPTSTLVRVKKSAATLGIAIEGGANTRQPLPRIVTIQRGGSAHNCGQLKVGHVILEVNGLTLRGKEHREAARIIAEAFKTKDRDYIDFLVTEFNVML

[3] = biological target: DLG1_1, Q12959
[4] = biological target: DLG1_2, Q12959
[5] = biological target: DLG1_3, Q12959
[6] = biological target: T3, DLG3_3, Q92796
T3 sequence (Q92796 374-475, limits assumed, looked up): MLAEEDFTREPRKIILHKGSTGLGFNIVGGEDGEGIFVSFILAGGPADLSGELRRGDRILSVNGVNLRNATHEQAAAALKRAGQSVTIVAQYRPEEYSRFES

[7] = biological target: FRMPD2_3, Q68DX3
Sequence of FRMPD2_3, Q68DX3 (Q68DX3 1073-1166): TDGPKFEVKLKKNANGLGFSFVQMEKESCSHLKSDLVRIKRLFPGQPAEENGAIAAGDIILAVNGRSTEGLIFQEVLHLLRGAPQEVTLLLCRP

[8] = biological target: GOPC, Q9HD26
[9] = biological target: GORASP2, Q9H8Y8
[10] = biological target: T4, GRIP1_7, Q9Y3R0
T4 sequence (Q9Y3R0 999-1096, limits assumed, looked up): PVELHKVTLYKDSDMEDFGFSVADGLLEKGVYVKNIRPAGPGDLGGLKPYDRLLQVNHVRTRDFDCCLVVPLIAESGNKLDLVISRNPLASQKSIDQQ

[11] = biological target: GRIP2_4, Q9C0E4
Sequence of GRIP2_4, Q9C0E4 (Q9C0E4 446-548): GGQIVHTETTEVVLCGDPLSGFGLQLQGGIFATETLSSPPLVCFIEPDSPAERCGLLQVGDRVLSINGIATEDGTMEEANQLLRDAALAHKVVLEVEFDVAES

[12] = biological target: GRIP2_6, Q9C0E4
Sequence of GRIP2_6, Q9C0E4 (Q9C0E4 648-740): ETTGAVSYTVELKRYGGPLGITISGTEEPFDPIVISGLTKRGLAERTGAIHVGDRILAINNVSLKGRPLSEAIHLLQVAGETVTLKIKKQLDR

[13] = biological target: IL16_1, Q14005
Sequence of IL16_1, Q14005 (Q14005 210-306): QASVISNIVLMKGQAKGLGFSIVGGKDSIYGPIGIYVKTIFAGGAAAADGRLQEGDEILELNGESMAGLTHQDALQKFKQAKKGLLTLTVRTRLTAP

[14] = biological target: Inadl_1, Q8NI35
Sequence of Inadl_1, Q8NI35 (Q8NI35 113-229): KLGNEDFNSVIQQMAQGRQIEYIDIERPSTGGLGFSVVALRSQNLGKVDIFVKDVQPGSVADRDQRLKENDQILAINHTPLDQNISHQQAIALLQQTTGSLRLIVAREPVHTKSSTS

[15] = biological target: Inadl_4, Q8NI35
Sequence of Inadl_4, Q8NI35 (Q8NI35 547-651): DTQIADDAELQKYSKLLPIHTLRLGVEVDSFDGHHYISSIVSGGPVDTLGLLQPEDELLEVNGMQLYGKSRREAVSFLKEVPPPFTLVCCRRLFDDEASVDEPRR

[16] = biological target: LAP2, Q96RT1
Sequence of LAP2, Q96RT1 (Q96RT1 other isoform, or with tags, fused parts or gaps): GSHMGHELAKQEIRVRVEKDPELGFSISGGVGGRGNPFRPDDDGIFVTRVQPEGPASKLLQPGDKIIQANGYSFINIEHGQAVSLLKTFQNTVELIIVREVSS

[17] = biological target: T5, LIN7A, O14910
T5 sequence (O14910 103-200, limits assumed, looked up): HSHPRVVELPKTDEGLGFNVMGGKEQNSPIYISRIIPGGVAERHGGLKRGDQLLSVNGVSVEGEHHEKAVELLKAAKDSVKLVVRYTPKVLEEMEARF

[18] = biological target: LNX1_2, Q8TBB1
Sequence of LNX1_2, Q8TBB1 (Q8TBB1 371-470): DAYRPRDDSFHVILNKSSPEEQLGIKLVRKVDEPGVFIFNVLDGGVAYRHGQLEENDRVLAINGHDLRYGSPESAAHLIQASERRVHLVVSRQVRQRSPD

[19] = biological target: MAGI2_6, Q86UL8
Sequence of MAGI2_6, Q86UL8 (Q86UL8 1141-1229): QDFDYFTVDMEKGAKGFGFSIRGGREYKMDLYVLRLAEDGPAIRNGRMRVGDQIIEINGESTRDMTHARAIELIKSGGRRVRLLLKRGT

[20] = biological target: MAST1, Q9Y2H9
Sequence of MAST1, Q9Y2H9 (Q9Y2H9 962-1065): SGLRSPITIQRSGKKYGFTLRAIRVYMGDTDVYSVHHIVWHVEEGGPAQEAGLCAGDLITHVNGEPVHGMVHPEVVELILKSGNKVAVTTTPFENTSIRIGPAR

[21] = biological target: T6, MPDZ_12, O75970
T6 sequence (O75970 1857-1958, limits assumed, looked up): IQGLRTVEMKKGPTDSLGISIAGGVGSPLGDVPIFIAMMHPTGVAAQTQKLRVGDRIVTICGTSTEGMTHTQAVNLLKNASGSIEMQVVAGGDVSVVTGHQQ

[22] = biological target: NHERF2_2, Q15599
Sequence of NHERF2_2, Q15599 (Q15599 142-238): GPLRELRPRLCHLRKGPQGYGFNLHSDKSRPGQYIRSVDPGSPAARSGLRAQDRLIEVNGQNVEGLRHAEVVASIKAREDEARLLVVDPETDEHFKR

[23] = biological target: NOS1, P29475
Sequence of NOS1, P29475 (P29475 9-101): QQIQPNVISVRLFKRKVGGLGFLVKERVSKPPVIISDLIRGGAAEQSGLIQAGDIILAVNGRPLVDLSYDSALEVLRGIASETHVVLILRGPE

[24] = biological target: PARD3_3, Q8TEW0
Sequence of PARD3_3, Q8TEW0 (Q8TEW0 582-685): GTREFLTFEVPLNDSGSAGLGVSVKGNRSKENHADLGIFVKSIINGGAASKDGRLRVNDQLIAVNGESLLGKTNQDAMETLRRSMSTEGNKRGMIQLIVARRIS

[25] = biological target: T7, PDZD2_2, O15018
T7 sequence (O15018 329-429, limits assumed, looked up): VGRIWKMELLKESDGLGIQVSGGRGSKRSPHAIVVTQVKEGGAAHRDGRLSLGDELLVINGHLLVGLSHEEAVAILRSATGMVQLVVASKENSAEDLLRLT

[26] = biological target: PDZRN4_1, Q6ZMN7
Sequence of PDZRN4_1, Q6ZMN7 (Q6ZMN7 213-318): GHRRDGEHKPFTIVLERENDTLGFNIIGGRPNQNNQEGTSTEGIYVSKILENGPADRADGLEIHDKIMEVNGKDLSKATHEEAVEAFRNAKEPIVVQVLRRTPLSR

[27] = biological target: T8, SNTG1, Q9NSN8
T8 sequence (Q9NSN8 52-150, limits assumed, looked up): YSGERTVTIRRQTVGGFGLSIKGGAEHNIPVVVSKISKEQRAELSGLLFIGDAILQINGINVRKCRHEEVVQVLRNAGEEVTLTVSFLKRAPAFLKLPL

[28] = biological target: TJP1_2, Q07157
Sequence of TJP1_2, Q07157 (Q07157 181-274): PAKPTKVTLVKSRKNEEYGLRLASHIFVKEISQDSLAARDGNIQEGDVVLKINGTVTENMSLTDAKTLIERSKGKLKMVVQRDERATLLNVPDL

[29] = biological target: T9, TJP3_3, O95049
T9 sequence (O95049 375-456, limits assumed, looked up): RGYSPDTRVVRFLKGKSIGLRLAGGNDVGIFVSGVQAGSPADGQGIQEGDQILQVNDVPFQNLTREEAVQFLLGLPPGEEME

[30] = plain residues with an end cap or a label only (N-terminal biotin on a linker: ttds)
[31] = plain residues with an end cap or a label only (N-terminal biotin on a linker: gsgsgs; C-terminal amide)
[32] = plain residues with an end cap or a label only (N-terminal biotin on a linker: ahx)

pKd [1, 30]: below the threshold
pKd [2, 30]: below the threshold
pKd [3, 30]: below the threshold
pKd [4, 30]: below the threshold
pKd [5, 30]: below the threshold
pKd [6, 30]: below the threshold
pKd [7, 30]: below the threshold
pKd [8, 30]: 4.21
pKd [9, 30]: below the threshold
pKd [10, 30]: 3.77
pKd [11, 30]: below the threshold
pKd [12, 30]: below the threshold
pKd [13, 30]: below the threshold
pKd [14, 30]: below the threshold
pKd [15, 30]: below the threshold
pKd [16, 30]: below the threshold
pKd [17, 30]: below the threshold
pKd [18, 30]: below the threshold
pKd [19, 30]: below the threshold
pKd [20, 30]: 5.01
pKd [21, 30]: below the threshold
pKd [22, 30]: 4.84
pKd [23, 30]: 3.76
pKd [24, 30]: 3.87
pKd [25, 30]: below the threshold
pKd [26, 30]: 4.08
pKd [27, 30]: below the threshold
pKd [28, 30]: below the threshold
pKd [29, 30]: below the threshold
Binder: IYVPEAQTRL [DLGAP4, Q9Y2H0]

pKd [1, 30]: below the threshold
pKd [2, 30]: below the threshold
pKd [3, 30]: 4.02
pKd [4, 30]: 3.75
pKd [5, 30]: below the threshold
pKd [6, 30]: below the threshold
pKd [7, 30]: below the threshold
pKd [8, 30]: 3.5
pKd [9, 30]: 4.04
pKd [10, 30]: below the threshold
pKd [11, 30]: below the threshold
pKd [12, 30]: below the threshold
pKd [13, 30]: below the threshold
pKd [14, 30]: 3.57
pKd [15, 30]: below the threshold
pKd [16, 30]: below the threshold
pKd [17, 30]: below the threshold
pKd [18, 30]: below the threshold
pKd [19, 30]: 3.97
pKd [20, 30]: below the threshold
pKd [21, 30]: below the threshold
pKd [22, 30]: below the threshold
pKd [23, 30]: below the threshold
pKd [24, 30]: below the threshold
pKd [25, 30]: 4
pKd [26, 30]: below the threshold
pKd [27, 30]: below the threshold
pKd [28, 30]: below the threshold
pKd [29, 30]: below the threshold
Binder: PKTPPTDTSV [KIR3DL3, Q8N743]

Further lines, the binder ahead of its results:

Binder: TVASEKESVM [SLC1A5, Q15758]
pKd [1, 30]: below the threshold
pKd [2, 30]: below the threshold
pKd [3, 30]: below the threshold
pKd [4, 30]: below the threshold
pKd [5, 30]: 3.55
pKd [6, 30]: 3.66
pKd [7, 30]: below the threshold
pKd [8, 30]: 3.76
pKd [9, 30]: below the threshold
pKd [10, 30]: 3.67
pKd [11, 30]: below the threshold
pKd [12, 30]: below the threshold
pKd [13, 30]: below the threshold
pKd [14, 30]: 3.64
pKd [15, 30]: below the threshold
pKd [16, 30]: below the threshold
pKd [17, 30]: below the threshold
pKd [18, 30]: below the threshold
pKd [19, 30]: below the threshold
pKd [20, 30]: 4.2
pKd [21, 30]: below the threshold
pKd [22, 30]: 3.51
pKd [23, 30]: below the threshold
pKd [24, 30]: below the threshold
pKd [25, 30]: below the threshold
pKd [26, 30]: 3.87
pKd [27, 30]: below the threshold
pKd [28, 30]: below the threshold
pKd [29, 30]: below the threshold

Binder: TLSLTDSSVDGIPPYR [AXIN1_int, O15169]
pKd [1, 31]: below the threshold
pKd [2, 31]: 3.91
pKd [3, 31]: below the threshold
pKd [4, 31]: below the threshold
pKd [5, 31]: below the threshold
pKd [6, 31]: below the threshold
pKd [7, 31]: below the threshold
pKd [8, 31]: below the threshold
pKd [9, 31]: below the threshold
pKd [10, 31]: below the threshold
pKd [11, 31]: below the threshold
pKd [12, 31]: below the threshold
pKd [13, 31]: 3.48
pKd [14, 31]: below the threshold
pKd [15, 31]: below the threshold
pKd [16, 31]: below the threshold
pKd [17, 31]: below the threshold
pKd [18, 31]: below the threshold
pKd [19, 31]: below the threshold
pKd [20, 31]: 3.68
pKd [21, 31]: 3.55
pKd [22, 31]: below the threshold
pKd [23, 31]: below the threshold
pKd [24, 31]: below the threshold
pKd [25, 31]: below the threshold
pKd [26, 31]: below the threshold
pKd [27, 31]: below the threshold
pKd [28, 31]: below the threshold
pKd [29, 31]: below the threshold

Binder: HTHSYIETHV [CNKSR2, Q8WXI2]
pKd [1, 32]: below the threshold
pKd [2, 32]: below the threshold
pKd [3, 32]: 4.62
pKd [4, 32]: 5.1
pKd [5, 32]: 3.85
pKd [6, 32]: 4.01
pKd [7, 32]: 3.87
pKd [8, 32]: below the threshold
pKd [9, 32]: below the threshold
pKd [10, 32]: below the threshold
pKd [11, 32]: below the threshold
pKd [12, 32]: below the threshold
pKd [13, 32]: 3.9
pKd [14, 32]: below the threshold
pKd [15, 32]: below the threshold
pKd [16, 32]: 5.51
pKd [17, 32]: below the threshold
pKd [18, 32]: below the threshold
pKd [19, 32]: 4.41
pKd [20, 32]: 4.57
pKd [21, 32]: below the threshold
pKd [22, 32]: below the threshold
pKd [23, 32]: 3.85
pKd [24, 32]: below the threshold
pKd [25, 32]: 4.24
pKd [26, 32]: below the threshold
pKd [27, 32]: 4.9
pKd [28, 32]: below the threshold
pKd [29, 32]: below the threshold
